The text below walks through data of patent publication US20160152729A1 (Novo Nordisk, published 2016).

Assay [1] deals with T1, human TFPIα (human, UniProt P10646 29-304).
T1 construct: recombinant full-length TFPIα in the assays; also called TFPI alpha; full-length TFPIα
Kind of assay: SPR Biacore T200; antibody captured on anti-human IgG Fc; TFPI as analyte; 1:1 model. How it is done: (§1) Binding interaction data were obtained by means of Surface Plasmon Resonance in a Biacore T200 instrument. […] chip (GE Healthcare) in flow-cells 1-4 using the amine coupling protocol available with the Biacore T-200 control software version 2.0 (GE Healthcare) and the reagents provided with the Amine Coupling Kit (GE Healthcare). […] Different concentrations of human TFPIα or TFPI (1-79) were tested by diluting the sample in running buffer (10 mM HEPES, pH 7.4, 300 mM NaCl, 5 mM CaCl₂, 0.05% Surfactant P20, 1 mg/ml BSA). Each sample was assayed using 300 seconds of contact time followed by 420-600 seconds of dissociation time at 30 μl/min flow rate. A buffer blank was also assayed. The sensor surface was regenerated with 10 mM Glycine pH 1.7 either for 180 sec at 30 μl/min flow rate or with two cycles each of 30 seconds at 30 μl/min flow rate.
(§2) The Biacore T200 Evaluation software (version 2.0) was used to analyse the data. Determination of binding constants (kₐ, kd, KD) was obtained assuming a 1:1 interaction of TFPI and the monoclonal antibody of interest.
A general note: In SPR one partner is held on a chip, and binding of the other changes the refractive index at the surface.

The target of a further assay is T2, human TFPI (1-79) (human, UniProt P10646 29-107).
T2 construct: Acidic N-terminal region and KPI-1 domain
Described as above. How it is done:
as §1, §2

For assay [2], the target named is T1, human TFPIα. Kind of assay: SPR Biacore T200; TFPIα held by captured mAb 2F48.
Assay [3] concerns the target T1, human TFPIα. Kind of assay: SPR Biacore T200; TFPIα held by captured mAb 2F22.

Where only a bound is given, the exact number is not on record here.

B1: mAb 0294 (antibody, human IgG4 S228P, kappa, V domains shown)
VH: QVQLKQSGPGLVQPSQSLSITCTVSGFSLTNYGVHWVRQSPGKGLEWLAVIWRGGSIDYNAAFMSRLSITKDNSKSQVFFKMNSLQADDTAIYYCAKNSHGNYVGYAMDYWGQGTSVTVSS
VL: GIVMTQSQKFMSTTVGDRVSITCKASQSVGPAVAWYQQKPGQSPKLLIYSASNRYTGVPDRFTGSGSGADFTLTISNLHSEDLADYFCQQYTSYPTFGGGTKLEIKR
notes: Murine-human chimera of mAb 2F22, human IgG4 (S241P) constant region, human kappa; also called chimeric mAb 2F22
Broadly, the Kd is the constant that tells how readily two partners part at equilibrium. A higher Kd goes with a looser complex. B1: the equilibrium dissociation constant (Kd) with human TFPIα [1] was determined as 0.46 nM; with human TFPI (1-79), 0.27 nM.

B2: FXa (enzyme)
chain 1: ANSFLEEMKKGHLERECMEETCSYEEAREVFEDSDKTNEFWNKYKDGDQCETSPCQNQGKCKDGLGEYTCTCLEGFEGKNCELFTRKLCSLDNGDCDQFCHEEQNSVVCSCARGYTLADNGKACIPTGPYPCGKQTLER
chain 2: IVGGQECKDGECPWQALLINEENEGFCGGTILSEFYILTAAHCLYQAKRFKVRVGDRNTEQEEGGEAVHEVEVVIKHNRFTKETYDFDIAVLRLKTPITFRMNVAPACLPERDWAESTLMTQKTGIVSGFGRTHEKGRQSTRLKMLEVPYVDRNSCKLSSSFIITQNMFCAGYDTKQEDACQGDSGGPHVTRFKDTYFVTGIVSWGEGCARKGKYGIYTKVTAFLKWIDRSMKTRGLPKAKSHAPEVITSSPLK
As for B2, the “fold decrease of the affinity for TFPI to FXa, against TFPI bound to mAb 4F110” value is under 10 fold with human TFPIα [2] and over 30 fold with human TFPIα [3].
